Our source for the fold decrease in binding activity values is US20040063188A1.

This test has as its target recombinant HPV-16 L1 VLPs (baculovirus-derived, from Sf-9S insect cells) (human papillomavirus type 16) (UniProt P03101). The experiment in a line: ELISA; 1000 ng VLPs mixed with infected-cell supernatants; reference is the same pair with VLPs in buffer or in sucrose (FIG. 11). (In general: In an ELISA, binding on a coated surface is turned into a signal by an enzyme label.)
Sequence of UniProt P03101 (P03101 whole entry): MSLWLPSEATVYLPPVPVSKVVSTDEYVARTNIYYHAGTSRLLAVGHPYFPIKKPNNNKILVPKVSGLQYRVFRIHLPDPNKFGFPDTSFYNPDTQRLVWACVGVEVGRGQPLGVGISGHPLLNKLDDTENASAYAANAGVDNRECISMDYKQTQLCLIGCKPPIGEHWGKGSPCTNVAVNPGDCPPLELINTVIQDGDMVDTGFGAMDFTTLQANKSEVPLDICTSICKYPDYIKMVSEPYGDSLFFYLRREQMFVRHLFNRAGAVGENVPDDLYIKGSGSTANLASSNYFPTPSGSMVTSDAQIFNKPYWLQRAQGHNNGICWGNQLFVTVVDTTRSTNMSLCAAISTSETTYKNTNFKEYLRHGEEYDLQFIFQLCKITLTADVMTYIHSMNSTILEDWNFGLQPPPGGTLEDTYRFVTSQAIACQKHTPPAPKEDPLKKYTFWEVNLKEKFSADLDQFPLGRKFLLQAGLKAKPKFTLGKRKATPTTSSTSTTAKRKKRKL

Turning to H16.V5 murine monoclonal antibody, the fold decrease in binding activity was determined as 5 fold.
